Assay results published in patent publication US20200392225A1 (Novartis, published 2020).

T1: human NPR1 expressed on CHO-K1 cells (human, UniProt P16066 33-1061)
T1 sequence: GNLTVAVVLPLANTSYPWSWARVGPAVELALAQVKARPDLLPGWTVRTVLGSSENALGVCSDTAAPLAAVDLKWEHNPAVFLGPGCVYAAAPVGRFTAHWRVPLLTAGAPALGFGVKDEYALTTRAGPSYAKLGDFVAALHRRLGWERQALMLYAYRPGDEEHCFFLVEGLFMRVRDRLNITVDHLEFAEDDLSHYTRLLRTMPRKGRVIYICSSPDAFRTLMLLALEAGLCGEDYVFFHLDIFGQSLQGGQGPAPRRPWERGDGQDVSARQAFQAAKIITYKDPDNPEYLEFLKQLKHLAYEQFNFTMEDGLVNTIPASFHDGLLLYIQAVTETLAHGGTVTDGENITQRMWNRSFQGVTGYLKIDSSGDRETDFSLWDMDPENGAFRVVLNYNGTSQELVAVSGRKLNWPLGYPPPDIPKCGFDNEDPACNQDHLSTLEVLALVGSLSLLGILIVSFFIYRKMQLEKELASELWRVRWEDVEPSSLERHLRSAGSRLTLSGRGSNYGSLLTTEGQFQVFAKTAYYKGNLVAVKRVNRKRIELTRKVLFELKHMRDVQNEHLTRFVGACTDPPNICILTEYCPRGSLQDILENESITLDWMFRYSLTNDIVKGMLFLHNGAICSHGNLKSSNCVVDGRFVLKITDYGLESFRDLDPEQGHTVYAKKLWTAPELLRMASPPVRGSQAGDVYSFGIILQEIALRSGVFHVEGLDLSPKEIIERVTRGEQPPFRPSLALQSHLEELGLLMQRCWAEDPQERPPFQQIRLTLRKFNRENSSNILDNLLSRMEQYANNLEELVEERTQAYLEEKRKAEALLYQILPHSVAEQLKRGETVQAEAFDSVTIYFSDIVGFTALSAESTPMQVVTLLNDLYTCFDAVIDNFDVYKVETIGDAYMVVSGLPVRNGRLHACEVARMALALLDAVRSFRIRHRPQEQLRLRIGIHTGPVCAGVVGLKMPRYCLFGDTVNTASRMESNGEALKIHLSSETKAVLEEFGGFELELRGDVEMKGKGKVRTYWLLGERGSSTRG

T2: human NPR1 (Natriuretic Peptide Receptor 1), recombinant antigen (human, UniProt P16066 33-473)
T2 construct: also called hNPR1; NPR1-hFc
T2 sequence: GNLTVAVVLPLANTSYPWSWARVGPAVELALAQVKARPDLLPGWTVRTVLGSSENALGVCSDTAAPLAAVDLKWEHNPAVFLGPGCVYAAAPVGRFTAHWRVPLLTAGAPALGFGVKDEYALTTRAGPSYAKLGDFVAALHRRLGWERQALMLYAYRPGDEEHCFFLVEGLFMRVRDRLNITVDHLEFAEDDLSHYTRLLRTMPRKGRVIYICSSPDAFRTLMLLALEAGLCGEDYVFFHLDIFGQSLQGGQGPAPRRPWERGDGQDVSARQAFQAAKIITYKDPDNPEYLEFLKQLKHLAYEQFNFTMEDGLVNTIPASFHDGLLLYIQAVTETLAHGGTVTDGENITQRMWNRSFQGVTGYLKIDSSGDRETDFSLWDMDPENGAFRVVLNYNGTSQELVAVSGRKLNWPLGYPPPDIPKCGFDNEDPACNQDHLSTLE

T3: human NPR1 expressed on CHO-K1 cells in the presence of ANP (human, UniProt P01160 124-151)
T3 construct: also called hNPR1 CHO K1 + 100 nM ANP
T3 sequence: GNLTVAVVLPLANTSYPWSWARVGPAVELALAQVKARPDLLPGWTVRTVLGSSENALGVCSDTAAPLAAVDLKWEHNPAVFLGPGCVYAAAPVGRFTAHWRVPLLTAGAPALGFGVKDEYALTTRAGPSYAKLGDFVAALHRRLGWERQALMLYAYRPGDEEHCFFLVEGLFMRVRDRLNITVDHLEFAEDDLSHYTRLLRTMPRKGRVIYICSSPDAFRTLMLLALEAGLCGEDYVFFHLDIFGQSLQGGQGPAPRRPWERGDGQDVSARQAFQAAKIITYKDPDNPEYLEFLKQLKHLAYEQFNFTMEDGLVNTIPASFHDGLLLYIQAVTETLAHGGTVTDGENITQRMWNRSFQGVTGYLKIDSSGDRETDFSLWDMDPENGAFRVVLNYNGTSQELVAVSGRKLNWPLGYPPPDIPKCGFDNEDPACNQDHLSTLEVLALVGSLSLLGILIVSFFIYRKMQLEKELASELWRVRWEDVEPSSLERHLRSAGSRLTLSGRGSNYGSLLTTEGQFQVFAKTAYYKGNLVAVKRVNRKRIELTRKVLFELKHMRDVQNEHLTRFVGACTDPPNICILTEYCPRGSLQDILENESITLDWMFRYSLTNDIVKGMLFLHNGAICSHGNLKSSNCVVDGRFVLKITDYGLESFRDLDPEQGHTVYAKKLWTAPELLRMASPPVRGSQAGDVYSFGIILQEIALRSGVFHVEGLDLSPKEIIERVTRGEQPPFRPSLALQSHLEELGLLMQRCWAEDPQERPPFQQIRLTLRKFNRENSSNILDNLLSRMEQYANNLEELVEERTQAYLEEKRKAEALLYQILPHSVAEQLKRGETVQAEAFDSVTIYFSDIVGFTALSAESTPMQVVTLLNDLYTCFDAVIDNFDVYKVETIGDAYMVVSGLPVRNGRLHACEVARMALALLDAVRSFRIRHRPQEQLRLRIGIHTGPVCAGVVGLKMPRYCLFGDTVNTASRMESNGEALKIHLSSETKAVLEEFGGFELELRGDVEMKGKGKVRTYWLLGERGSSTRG
T3 sequence (peptide): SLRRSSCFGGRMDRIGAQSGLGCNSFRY

T4: human NPR1-ANP complex (human, UniProt P01160 124-151, limits assumed)
T4 construct: Receptor antigen measured in the presence of ANP; also called hNPR1 + ANP; hNPR1-ANP-complex
T4 sequence: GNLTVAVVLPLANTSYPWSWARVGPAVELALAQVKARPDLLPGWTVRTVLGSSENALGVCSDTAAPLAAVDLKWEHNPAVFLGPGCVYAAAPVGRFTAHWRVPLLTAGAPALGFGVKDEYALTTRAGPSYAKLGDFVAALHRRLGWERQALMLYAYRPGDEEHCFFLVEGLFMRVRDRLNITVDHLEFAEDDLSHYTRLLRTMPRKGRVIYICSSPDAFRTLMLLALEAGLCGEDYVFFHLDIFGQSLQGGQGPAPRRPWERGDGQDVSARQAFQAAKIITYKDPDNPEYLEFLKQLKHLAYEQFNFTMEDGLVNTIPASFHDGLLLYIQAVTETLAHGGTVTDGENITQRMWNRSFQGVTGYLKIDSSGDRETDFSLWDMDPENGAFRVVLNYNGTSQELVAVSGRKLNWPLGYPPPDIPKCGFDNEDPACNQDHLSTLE
T4 sequence (peptide): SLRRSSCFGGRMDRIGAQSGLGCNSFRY


How the values were obtained:
[1] = molecular target: T1, human NPR1 expressed on CHO-K1 cells; experiment: cell-based or functional assay
[2] = molecular target: T1, human NPR1 expressed on CHO-K1 cells; experiment: cell-based or functional assay; remark: listed apart in the source
[3] = molecular target: T2, human NPR1 (Natriuretic Peptide …); experiment: ELISA, 1 uM IgG
[4] = molecular target: T1, human NPR1 expressed on CHO-K1 cells; experiment: flow cytometry, 1 uM IgG
[5] = molecular target: T3, human NPR1 expressed on CHO-K1 cells in …; experiment: flow cytometry, 1 uM IgG, +100 nM ANP
[6] = molecular target: T5, rat NPR1-ANP complex (rat); experiment: ELISA, 1 uM IgG, +100 nM ANP
T5 construct: Rat receptor antigen measured in the presence of ANP; also called rNPR1 + ANP; rNPR1-ANP-complex
T5 sequence (P18910 29-469, one chain of several): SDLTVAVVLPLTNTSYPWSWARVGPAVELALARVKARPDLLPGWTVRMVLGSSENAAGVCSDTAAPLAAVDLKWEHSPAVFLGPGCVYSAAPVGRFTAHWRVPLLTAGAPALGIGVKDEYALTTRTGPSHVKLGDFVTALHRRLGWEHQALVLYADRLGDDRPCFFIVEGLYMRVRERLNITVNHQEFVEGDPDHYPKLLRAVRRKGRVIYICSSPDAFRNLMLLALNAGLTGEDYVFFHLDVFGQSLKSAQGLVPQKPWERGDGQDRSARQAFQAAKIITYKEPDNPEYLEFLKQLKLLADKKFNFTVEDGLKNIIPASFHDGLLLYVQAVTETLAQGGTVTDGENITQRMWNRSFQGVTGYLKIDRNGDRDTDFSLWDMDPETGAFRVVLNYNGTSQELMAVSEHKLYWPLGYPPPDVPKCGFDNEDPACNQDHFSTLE

[7] = molecular target: T4, human NPR1-ANP complex; experiment: ELISA, 1 uM IgG, +100 nM ANP
[8] = molecular target: T1, human NPR1 expressed on CHO-K1 cells; experiment: cell-based or functional assay; remark: listed apart in the source

Row | Binder | cGMP conc [nM] at 2 uM FabCys, +0.075 nM ANP [1] | cGMP conc [nM] at 2 uM FabCys, without ANP [1] | cGMP conc [nM] at 1 uM FabCys, +0.075 nM ANP [2] | cGMP conc [nM] at 1 uM FabCys, without ANP [2] | also measured
1 | WW06 FabCys (Fab, V domains shown) VH: QVQLVQSGAEVKKPGESLKISCKGSGYSFTSYWIAWVRQMPGKGLEWMGRIDPDNSYTRYSPSFQGQVTISADKSISTAYLQWSSLKASDTAMYYCARWLSPGYALGEQPAGMDHWGQGTLVTVSS VL: DIVLTQPPSVSGAPGQRVTISCTGSSSNIGAGYAVHWYQQLPGTAPKLLIYSNNKRPSGVPDRFSGSKSGTSASLAITGLQAEDEADYYCQSYDLQKSSRVFGGGTKLTVL | 251 nM | 281 nM |  |  | 
2 | YY01 FabCys (Fab, V domains shown) VH: EVQLVESGGGLVQPGGSLRLSCAASGFTFSSYWISWVRQAPGKGLEWVANIKQSGSETYYVESVKGRFTISRDNAKNSLYLQMNSLRAEDTAVYYCARSLRRRSTEHAGFDVWGQGTLVTVSS VL: DIQMTQSPSSLSASVGDRVTITCRASQGISNYLAWYQQKPGKVPKLLIYAASTLQSGVPSRFSGSGSGTDFTLTISSLQPEDVATYYCQQADKFPYTFGQGTKVEIK |  |  | 46 nM | 15 nM | 
3 | YY04 FabCys (Fab, V domains shown) VH: EVQLVESGGGLVKPGGSLRLSCAASGFTFSNYWISWVRQAPGKGLEWVGRIKSKTYGGTTDYAEPVKGRFTISRDDSKNTLYLQMNSLKTEDTAVYYCAREKYSIRARGHGDYGFDVWGQGTLVTVSS VL: DIQMTQSPSSLSASVGDRVTITCRASQGISNYLAWYQQKPGKVPKLLIYAASTLQSGVPSRFSGSGSGTDFTLTISSLQPEDVATYYCQQGYHAPFTFGQGTKVEIK |  |  | 67 nM | 18 nM | 
4 | YY01 IgG (YY01_LALA) (antibody, V domains shown) VH: EVQLVESGGGLVQPGGSLRLSCAASGFTFSSYWISWVRQAPGKGLEWVANIKQSGSETYYVESVKGRFTISRDNAKNSLYLQMNSLRAEDTAVYYCARSLRRRSTEHAGFDVWGQGTLVTVSS VL: DIQMTQSPSSLSASVGDRVTITCRASQGISNYLAWYQQKPGKVPKLLIYAASTLQSGVPSRFSGSGSGTDFTLTISSLQPEDVATYYCQQADKFPYTFGQGTKVEIKR |  |  |  |  | ELISA IgG binding at 1 uM IgG (unit not given) [3]: 54; flow cytometry S/BG [4]: 35 S/BG; flow cytometry S/BG [5]: 21 S/BG; ELISA IgG binding at 1 uM IgG (unit not given) [6]: 50; ELISA IgG binding at 1 uM IgG (unit not given) [7]: 76; cGMP conc [nM] at 1 uM IgG, +0.075 nM ANP [8]: 14 nM; cGMP conc [nM] at 1 uM IgG, without ANP [8]: 5 nM
5 | WW03 FabCys (Fab, V domains shown) VH: QVQLLESGGGLVQPGGSLRLSCAASGFTFSSYWMNWVRQAPGKGLEWVSAISSDGSYTYYADSVKGRFTISRDNSKNTLYLQMNSLRAEDTAVYYCARDRYSMIYSYGAGAFDYWGQGTLVTVSS VL: DIQMTQSPSSLSASVGDRVTITCRASQGISSYLAWYQQKPGKAPKLLIYTASTLQSGVPSRFSGSGSGTDFTLTISSLQPEDFATYYCMQSYEKPRTFGQGTKVEIK | 108 nM | 32 nM |  |  | 
6 | YY06 FabCys (Fab, V domains shown) VH: EVQLLESGGGLVQPGGSLRLSCAASGFTFSSYAISWVRQAPGKGLEWVSAISGSGGSTYYAESVKGRFTISRDNSKNTLYLQMNSLRAEDTAVYYCARPYLGDRRSYGFDHWGQGTLVTVSS VL: QSALTQPASVSGSPGQSITISCTGTSSDVGSYNLVSWYQQHPGKAPKLMIYEGSKRPSGVSNRFSGSKSGNTASLTISGLQAEDEADYYCSSYGFHIVVVVFGGGTKLTVL |  |  | 75 nM | 20 nM | 
